This assay has as its target cell surface IgG (sIgG) of the sIgG+ B cell line SU-DHL-4. Put plainly: cell-based or functional assay.

SpA toxin: the lowest concentration with significant toxicity on SU-DHL-4 (cell viability) was 0.0001 µg/mL and the percent of SU-DHL-4 cells killed above 0.001 µg/ml was 99%. SpG toxin (from UniProt P00587 26-411) registered a concentration showing weak cytotoxicity on SU-DHL-4 (cell viability) of 1 µg/mL.

Source of the values: EP4647081A1.
